Residue numbers refer to the chain shown, from its start.
T1: human IFNAR-1 protein (form not stated) (human, UniProt P17181 28-436, limits assumed)
T1 construct: bispecific ELISA
T1 sequence (looked up): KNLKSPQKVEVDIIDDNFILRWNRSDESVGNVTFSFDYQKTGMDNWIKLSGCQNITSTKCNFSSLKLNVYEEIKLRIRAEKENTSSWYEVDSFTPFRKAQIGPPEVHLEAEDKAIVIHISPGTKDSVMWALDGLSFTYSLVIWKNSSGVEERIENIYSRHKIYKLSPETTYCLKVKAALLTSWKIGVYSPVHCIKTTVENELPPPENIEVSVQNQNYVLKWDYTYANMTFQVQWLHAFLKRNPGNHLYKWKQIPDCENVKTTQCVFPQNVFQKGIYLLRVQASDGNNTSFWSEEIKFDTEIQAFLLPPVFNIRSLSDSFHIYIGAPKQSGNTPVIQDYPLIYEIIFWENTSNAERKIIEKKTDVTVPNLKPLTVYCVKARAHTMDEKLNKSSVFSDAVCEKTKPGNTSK

T2: human IFNAR-1 on cells (human, UniProt P17181 28-557)
T2 sequence (looked up): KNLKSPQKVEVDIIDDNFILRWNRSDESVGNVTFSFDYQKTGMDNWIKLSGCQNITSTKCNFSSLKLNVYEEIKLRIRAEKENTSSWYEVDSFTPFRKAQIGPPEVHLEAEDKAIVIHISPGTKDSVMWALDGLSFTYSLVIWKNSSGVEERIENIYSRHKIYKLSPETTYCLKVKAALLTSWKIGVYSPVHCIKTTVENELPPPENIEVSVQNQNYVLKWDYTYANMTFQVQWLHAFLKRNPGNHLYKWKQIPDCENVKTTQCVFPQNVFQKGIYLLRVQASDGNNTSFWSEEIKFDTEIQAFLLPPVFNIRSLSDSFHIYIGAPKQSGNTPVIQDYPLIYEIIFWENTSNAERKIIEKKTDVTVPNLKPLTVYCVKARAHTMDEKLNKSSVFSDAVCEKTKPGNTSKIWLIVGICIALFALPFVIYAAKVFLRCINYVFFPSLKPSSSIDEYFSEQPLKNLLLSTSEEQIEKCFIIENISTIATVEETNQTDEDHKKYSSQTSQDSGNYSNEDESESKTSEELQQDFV

T3: hIFNAR-1(1aa-409aa) K278A (human, UniProt P17181 28-436)
T3 construct: range 1-409
T3 sequence (looked up): T1 sequence (looked up) with K251A

T4: hIFNAR-1(1aa-409aa) L274A (human, UniProt P17181 28-436)
T4 construct: range 1-409
T4 sequence (looked up): T1 sequence (looked up) with L247A

T5: hIFNAR-1(1aa-409aa) K276A (human, UniProt P17181 28-436)
T5 construct: range 1-409
T5 sequence (looked up): T1 sequence (looked up) with K249A

T6: hIFNAR-1(1aa-409aa) H273A (human, UniProt P17181 28-436)
T6 construct: range 1-409
T6 sequence (looked up): T1 sequence (looked up) with H246A

T7: hIFNAR-1(1aa-409aa) Y275A (human, UniProt P17181 28-436)
T7 construct: range 1-409
T7 sequence (looked up): T1 sequence (looked up) with Y248A

B1: 8G11 chimeric antibody (antibody, V domains shown)
VH: EVQLQQSGAELVKPGASVKLSCTGFGFNIKDYYMHWVKQRAEQGLEWIGRIDPEDGETKYAPKFQGKATITADTSSNTAYLQVSSLTSEDTAVYYCARGGNFYVMDYWGQGTSVTVSS
VL: DIVMTQSQKFMSTSVGDRVSVTCKASQNVGTNVVWYQQKPGQSPKVLIYSASYRVSGVPDRFTGSGSGTDFTLIISNVQSEDLAEYFCQQKNNYPYTFGGGTKLEIK
notes: also called chimeric 8G11
B2: Anifrolumab (antibody, V domains shown)
VH: EVQLVQSGAEVKKPGESLKISCKGSGYIFTNYWIAWVRQMPGKGLESMGIIYPGDSDIRYSPSFQGQVTISADKSITTAYLQWSSLKASDTAMYYCARHDIEGFDYWGRGTLVTVSS
VL: EIVLTQSPGTLSLSPGERATLSCRASQSVSSSFFAWYQQKPGQAPRLLIYGASSRATGIPDRLSGSGSGTDFTLTITRLEPEDFAVYYCQQYDSSAITFGQGTRLEIKR

Assays:
[1] = biological target: T1, human IFNAR-1 protein (form not stated); experiment: ELISA on human IFNAR-1 protein
[2] = biological target: T2, human IFNAR-1 on cells; experiment: cell-based or functional assay
[3] = biological target: T3, hIFNAR-1(1aa-409aa) K278A; experiment: flow cytometry on alanine scan clone, normalised to WT
From the text: (§1) For each point, background fluorescence was subtracted from the raw data, which were then normalized to Fab reactivity with WT target protein. For each mutant clone, the mean binding value was plotted as a function of expression (represented by control reactivity).

[4] = biological target: T4, hIFNAR-1(1aa-409aa) L274A; experiment: as above
From the text: as §1

[5] = biological target: T5, hIFNAR-1(1aa-409aa) K276A; experiment: as above
From the text: as §1

[6] = biological target: T6, hIFNAR-1(1aa-409aa) H273A; experiment: as above
From the text: as §1

[7] = biological target: T7, hIFNAR-1(1aa-409aa) Y275A; experiment: as above
From the text: as §1

| Binder | EC50 (read off the curve) [1] | EC50 (nM), IFNα2b-mediated anti-viral assay (Huh7-Con1b HCV replicon luciferase) [2] | Binding Reactivity (% WT) [3] | Binding Reactivity (% WT) [4] | Binding Reactivity (% WT) [5] | Binding Reactivity (% WT) [6] | Binding Reactivity (% WT) [7] |
| --- | --- | --- | --- | --- | --- | --- | --- |
| B1 | ~0.1 nM | 7.73 nM |  |  |  |  |  |
| B2 |  |  | 105 % WT | 106 % WT | 99.4 % WT | 88.1 % WT | 146 % WT |
